Molecular target: human TLR3, full length (human) (UniProt O15455)
Test: cell-based or functional assay

% inhibition of TLR3 biological activity, poly(I:C) NF-κB reporter gene assay in 293T cells, mAb at 10 µg/ml: 38%
TLR3 neutralization at saturation concentrations: 50%
B1: mAb c1068 (antibody, from another filing, V domains shown)
VH: QVQLQQPGAELVQPGTSVRLSCKASGYIFTTYWIHWVKQRPGQGLEWIGEINPNNGRINYNEKFKTKATLTVDKSSSTAYMQLSSLTSEDSAVYYCTRVGVMITTFPYWGQGTLVTVSA
VL: DIQMTQSPASLSASVGETVTITCRASGNIHNYLAWYQQKQGKSPQLLVYNAKTLADGVPSRFSGSESGTQYSLKINSLQPEDFGSYYCQHFWSTPFTFGSGTKLELK
